Results from PMC6711812.

Molecular target: PpCESA3 (MbYTH bait and prey fusions) (Physcomitrella patens) (UniProt A9RGN5)
Test: two-hybrid

- colony growth as percent of the positive control: 20%
Substance: PpCESA3 (MbYTH bait and prey fusions) (from UniProt A9RGN5 1-1093) (natural protein)
